{
  "source": "paper PMC5870375",
  "biological_target": "oligomeric amyloid-β 1–42 (UniProt P05067)",
  "assay": "ELISA; solid phase binding assay: 96-well plate coated with 100 nM oAβ1-42 in PBS overnight at 4 °C, blocked with 4% BSA; purified Fc or sTREM2-Fc proteins in PBST with 0.5% BSA, 30 min at 37 °C; detected with biotinylated anti-Fc antibody, avidin-HRP, TMB, read at 620 nm",
  "data": [
    {"substance": "soluble TREM2-Fc (human TREM2 extracellular domain, amino acids 1–171, fused to the Fc region of human IgG1) (from UniProt Q9NZC2 19-171) (Fc fusion)", "values": [
      {"measurement": "Kd", "result": 86.5, "unit": "nM"}
    ]}
  ]
}
